In patent publication US20200407442A1 (WUXI BIOLOGICS IRELAND, published 2020):
Where a chain is given by its changes, count along the chain named.

B1: 3.40.19-uAb-IgG4L (antibody, V domains shown)
VH: QLQLQESGPGLVKPSETLSLTCTVSGDSISSTSYYWGWIRQPPGKGLEWIGSFYYSGSTYYNPSLKSRVTISVDTSKNQFSLKLNSVTAADTAVYYCARMQLWSYDVDVWGQGTTVTVSS
VL: QSALTQPASVSGSPGQSITISCTGTSSDVGGYDYVAWYQQHPGKVPKLMIYDVSERPSGVSNRFSGSKSGNTASLTISGLQAEDEADYYCSSYTSTTTLVVFGGGTKLSVL
notes: Fully human antibody from OMT rats; IgG4 lambda by its name; also called 3.40.19-uAb-hIgG4L
B2: 1.53.3-uAb-IgG4k (antibody, V domains shown)
VH: QVQLQQWGAGLLKPSETLSLTCGVYGGSFSGYYWSWIRQPPGMGLEWIGEINHRGNTNYNPSLKSRVTISEDTSKNQFSLRLSSVTAADTAVYFCTRGEDYSDYDYYGDFWGQGTLVTVSS
VL: EIVLTQSPATLSLSQGERATLSCRASQSISSYLAWYQQKPGQAPRLLIYAASNRATGIPARFSGSGSGTDFTLTISSLEPEDFAIYYCQQRSNWPLTFGGGTKVEIK
notes: Fully human antibody from OMT rats; IgG4 kappa by its name

What was measured:
Test in all cases: ELISA, antibody coated, LAG-3 D12.mFc mutant in supernatant, normalised to control mutants
[1] = target: T1, human LAG-3-ECD.D12.mFc mutant T100A (human, UniProt P18627 37-252)
T1 construct: Alanine scanning mutant; construct limits as for m26
T1 chain: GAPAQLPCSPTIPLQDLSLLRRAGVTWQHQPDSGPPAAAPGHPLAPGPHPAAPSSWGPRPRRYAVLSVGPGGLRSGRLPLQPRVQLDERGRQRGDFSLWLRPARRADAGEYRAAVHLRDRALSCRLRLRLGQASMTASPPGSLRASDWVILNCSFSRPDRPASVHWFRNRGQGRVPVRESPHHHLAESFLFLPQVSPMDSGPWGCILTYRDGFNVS
Method in brief: (§1)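 Antibody 1.53.3-uAb-IgG4k or 3.40.19-uAb-hIgG4L coated at 2 μg/mL, then exposed to supernatant containing quantified LAG-3 D12.mFc mutants. Detection with HRP anti-mFc (1:5000). Absorbance normalized to mean of control mutants; binding fold change <0.75 set as epitope cutoff.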

[2] = target: T2, human LAG-3-ECD.D12.mFc mutant D131A (human, UniProt P18627 37-252)
T2 construct: Alanine scanning mutant; construct limits as for m26
T2 chain: T1 chain with A64T, D95A
Method in brief: as §1

[3] = target: T3, human LAG-3-ECD.D12.mFc mutant L134A (human, UniProt P18627 37-252)
T3 construct: Alanine scanning mutant; construct limits as for m26
T3 chain: T1 chain with A64T, L98A
Method in brief: as §1

[4] = target: T4, human LAG-3-ECD.D12.mFc mutant W135A (human, UniProt P18627 37-252)
T4 construct: Alanine scanning mutant; construct limits as for m26
T4 chain: T1 chain with A64T, W99A
Method in brief: as §1

[5] = target: T5, human LAG-3-ECD.D12.mFc mutant R137A (human, UniProt P18627 37-252)
T5 construct: Alanine scanning mutant; construct limits as for m26
T5 chain: T1 chain with A64T, R101A
Method in brief: as §1

[6] = target: T6, human LAG-3-ECD.D12.mFc mutant P138A (human, UniProt P18627 37-252)
T6 construct: Alanine scanning mutant; construct limits as for m26
T6 chain: T1 chain with A64T, P102A
Method in brief: as §1

[7] = target: T7, human LAG-3-ECD.D12.mFc mutant R163A (human, UniProt P18627 37-252)
T7 construct: Alanine scanning mutant; construct limits as for m26
T7 chain: T1 chain with A64T, R127A
Method in brief: as §1

[8] = target: T8, human LAG-3-ECD.D12.mFc mutant W92A (human, UniProt P18627 37-252)
T8 construct: Alanine scanning mutant; construct limits as for m26
T8 chain: T1 chain with W56A, A64T
Method in brief: as §1

| Binder | Fold Change [1] | Fold Change [2] | Fold Change [3] | Fold Change [4] | Fold Change [5] | Fold Change [6] | Fold Change [7] | Fold Change [8] |
| --- | --- | --- | --- | --- | --- | --- | --- | --- |
| B1 | 0.738 | 0.045 | 0.04 | 0.049 | 0.101 | 0.106 | 0.655 | – |
| B2 | – | – | – | – | – | – | – | 0.554 |
